# In patent US20200078439A1:
# Target: HLA-DR molecules of the vaccinated patients
# Assay: cell-based or functional assay
binder,measurement,value
TLGEFLKLDRERAKN [BIR-002 (Survivin 97-111: …)],"immuno-response in vaccinated patients in vivo (IFN-g ELISPOT, +/- ICS) (out of 19 patients)",16
